Results: publication PMC3278529 (Free radical biology & medicine, 2011)
The star is where a group is joined. Biotin = O=C1N[C@H]2[C@H](CS[C@H]2CCCCC(=O)*)N1

T1: C196A-p47^phox (human, UniProt P14598 1-390, C196A)
T1 sequence (looked up): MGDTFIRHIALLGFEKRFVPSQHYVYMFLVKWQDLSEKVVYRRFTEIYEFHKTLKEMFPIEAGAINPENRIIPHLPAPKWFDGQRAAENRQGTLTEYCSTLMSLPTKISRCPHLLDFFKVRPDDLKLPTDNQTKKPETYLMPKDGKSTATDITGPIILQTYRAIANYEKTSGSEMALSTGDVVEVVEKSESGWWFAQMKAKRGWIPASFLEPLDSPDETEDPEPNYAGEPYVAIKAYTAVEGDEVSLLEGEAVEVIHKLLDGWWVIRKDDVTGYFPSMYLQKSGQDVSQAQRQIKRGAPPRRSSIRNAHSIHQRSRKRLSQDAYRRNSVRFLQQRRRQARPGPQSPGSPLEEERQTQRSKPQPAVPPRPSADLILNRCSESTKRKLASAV

T2: C378A-p47^phox (human, UniProt P14598 1-390, C378A)
T2 sequence (looked up): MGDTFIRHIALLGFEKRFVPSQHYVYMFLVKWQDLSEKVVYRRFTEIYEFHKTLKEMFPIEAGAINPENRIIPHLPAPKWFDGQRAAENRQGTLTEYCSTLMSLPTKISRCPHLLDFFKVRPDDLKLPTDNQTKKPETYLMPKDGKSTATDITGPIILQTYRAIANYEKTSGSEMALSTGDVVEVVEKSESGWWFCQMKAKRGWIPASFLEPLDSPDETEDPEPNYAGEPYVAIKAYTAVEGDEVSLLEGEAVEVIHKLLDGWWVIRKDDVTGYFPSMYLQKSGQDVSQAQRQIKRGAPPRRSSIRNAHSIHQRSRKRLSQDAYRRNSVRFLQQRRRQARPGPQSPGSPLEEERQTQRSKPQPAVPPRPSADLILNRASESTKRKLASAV

T3: C98G-p47^phox (human, UniProt P14598 1-390, C98G)
T3 sequence (looked up): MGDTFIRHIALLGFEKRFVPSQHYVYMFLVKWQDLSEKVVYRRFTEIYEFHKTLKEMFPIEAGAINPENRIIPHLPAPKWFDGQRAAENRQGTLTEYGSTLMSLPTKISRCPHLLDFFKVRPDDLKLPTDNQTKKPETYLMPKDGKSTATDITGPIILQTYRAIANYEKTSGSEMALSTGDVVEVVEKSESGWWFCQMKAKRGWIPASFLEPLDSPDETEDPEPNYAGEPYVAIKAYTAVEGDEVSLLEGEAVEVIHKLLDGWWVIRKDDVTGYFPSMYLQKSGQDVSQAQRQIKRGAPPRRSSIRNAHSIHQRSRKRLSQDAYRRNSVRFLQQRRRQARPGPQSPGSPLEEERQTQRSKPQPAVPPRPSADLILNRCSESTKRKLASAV

T4: C111A-p47^phox (human, UniProt P14598 1-390, C111A)
T4 sequence (looked up): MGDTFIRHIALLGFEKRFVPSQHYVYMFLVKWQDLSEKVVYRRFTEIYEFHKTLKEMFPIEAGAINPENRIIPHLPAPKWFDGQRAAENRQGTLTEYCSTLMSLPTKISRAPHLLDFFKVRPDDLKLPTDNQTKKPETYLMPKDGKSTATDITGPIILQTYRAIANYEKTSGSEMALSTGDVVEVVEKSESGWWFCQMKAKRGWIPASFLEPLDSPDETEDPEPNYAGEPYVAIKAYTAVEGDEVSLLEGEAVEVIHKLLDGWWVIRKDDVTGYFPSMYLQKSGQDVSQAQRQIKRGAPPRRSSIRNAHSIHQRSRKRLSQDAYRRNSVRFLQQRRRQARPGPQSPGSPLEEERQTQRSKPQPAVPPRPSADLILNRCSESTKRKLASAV

T5: His-p47^phox wild type (human, UniProt P14598 1-390)
T5 sequence (looked up): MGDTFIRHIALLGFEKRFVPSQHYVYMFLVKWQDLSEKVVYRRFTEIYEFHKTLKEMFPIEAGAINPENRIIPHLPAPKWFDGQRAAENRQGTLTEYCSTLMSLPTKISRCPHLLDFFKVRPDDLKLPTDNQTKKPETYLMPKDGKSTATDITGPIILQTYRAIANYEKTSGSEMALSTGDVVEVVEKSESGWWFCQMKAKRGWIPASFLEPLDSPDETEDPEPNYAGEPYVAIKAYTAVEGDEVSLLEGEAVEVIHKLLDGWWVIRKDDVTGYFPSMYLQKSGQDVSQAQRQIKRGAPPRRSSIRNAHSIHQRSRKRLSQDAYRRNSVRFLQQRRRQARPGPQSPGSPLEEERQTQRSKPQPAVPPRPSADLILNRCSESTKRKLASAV


What was measured:
p47^phox = p47^phox (Homo sapiens, UniProt P14598); experiment: ELISA of p47phox-p22phox peptide interaction; format: binding
C196A-p47^phox = target: T1, C196A-p47^phox; experiment: ELISA
C378A-p47^phox = target: T2, C378A-p47^phox; experiment: ELISA
C98G-p47^phox = target: T3, C98G-p47^phox; experiment: ELISA
C111A-p47^phox = target: T4, C111A-p47^phox; experiment: ELISA
His-p47^phox wild type = target: T5, His-p47^phox wild type; experiment: ELISA

Sequence of p47^phox (P13498 2-195, one chain of several): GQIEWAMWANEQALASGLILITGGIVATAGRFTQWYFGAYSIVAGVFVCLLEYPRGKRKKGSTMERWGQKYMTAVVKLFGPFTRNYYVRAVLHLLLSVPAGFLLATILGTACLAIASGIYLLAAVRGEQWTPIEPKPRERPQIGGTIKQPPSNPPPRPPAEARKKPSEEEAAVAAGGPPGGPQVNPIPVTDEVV

Row | binding result (C196A-p47^phox) | binding result (C378A-p47^phox) | binding result (C98G-p47^phox) | binding result (C111A-p47^phox) | binding result (His-p47^phox wild type) | Molecule | IC50 (p47^phox) [nM]
1 | – | – | – | – | – | O=C1C=CC(=O)c2ccccc21 [1,4-naphthoquinone] | 700
2 | binds | binds | binds | binds | binds | Biotin-SGSGPPSNPPPRPPAEARK-NH2 (SMILES C[C@H](NC(=O)[C@H](CCC(=O)O)NC(=O)[C@H](C)NC(=O)[C@@H]1CCCN1C(=O)[C@@H]1CCCN1C(=O)[C@H](CCCNC(=N)N)NC(=O)[C@@H]1CCCN1C(=O)[C@@H]1CCCN1C(=O)[C@@H]1CCCN1C(=O)[C@H](CC(N)=O)NC(=O)[C@H](CO)NC(=O)[C@@H]1CCCN1C(=O)[C@@H]1CCCN1C(=O)CNC(=O)[C@H](CO)NC(=O)CNC(=O)[C@H](CO)NC(=O)CCCC[C@@H]1SC[C@@H]2NC(=O)N[C@@H]21)C(=O)N[C@@H](CCCNC(=N)N)C(=O)N[C@@H](CCCCN)C(N)=O) [proline-rich p22^phox peptide (biotin-p22^phox)] | –
